Reference: paper PMC2475671

Target: Orc2-GFP (Drosophila (endogenous in salivary glands)) (UniProt Q24168)
Assay: FRET or BRET; acceptor photobleaching (543 nm laser) of Rbf1N-RFP (mCherry) with Orc2-GFP (EGFP) as donor, in chromatin-washed, formaldehyde-fixed salivary gland nuclei; ratio of bleached to non-bleached areas in three nuclei

Sequence of UniProt Q24168 (Q24168 whole entry): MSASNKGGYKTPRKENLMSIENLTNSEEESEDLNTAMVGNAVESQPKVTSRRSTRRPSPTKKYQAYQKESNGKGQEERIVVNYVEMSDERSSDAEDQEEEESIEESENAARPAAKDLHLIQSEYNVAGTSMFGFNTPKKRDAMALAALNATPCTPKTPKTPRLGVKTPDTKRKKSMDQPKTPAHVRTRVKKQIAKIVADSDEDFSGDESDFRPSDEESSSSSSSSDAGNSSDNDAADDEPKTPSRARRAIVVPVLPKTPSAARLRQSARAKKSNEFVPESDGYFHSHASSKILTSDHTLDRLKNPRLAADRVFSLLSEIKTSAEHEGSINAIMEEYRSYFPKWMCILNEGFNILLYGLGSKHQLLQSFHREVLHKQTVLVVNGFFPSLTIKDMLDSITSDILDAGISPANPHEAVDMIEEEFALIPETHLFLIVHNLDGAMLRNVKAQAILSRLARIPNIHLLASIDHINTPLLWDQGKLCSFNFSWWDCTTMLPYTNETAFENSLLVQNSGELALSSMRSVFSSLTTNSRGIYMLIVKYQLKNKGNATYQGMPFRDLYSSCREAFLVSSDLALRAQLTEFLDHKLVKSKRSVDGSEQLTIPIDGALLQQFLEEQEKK

fold increase of GFP fluorescence after RFP photobleaching: 1.5 to 2 fold
Substance: Rbf1N-RFP (Rbf1 amino acids 1–345 with C-terminal V5 and mCherry, Lys241Glu) (domain or fragment)
